# Positions count from the first letter of the chain named. Where “and” joins values, the source holds several entries; their conditions need not be identical. Identical values can stand only once.
# B1: 4A8 IgG (antibody, V domains shown)
# VH: EVQLVESGAEVKKPGASVKVSCKVSGYTLTELSMHWVRQAPGKGLEWMGGFDPEDGETMYAQKFQGRVTMTEDTSTDTAYMELSSLRSEDTAVYYCATSTAVAGTPDLFDYYYGMDVWGQGTTVTVSS
# VL: EIVMTQSPLSSPVTLGQPASISCRSSQSLVHSDGNTYLSWLQQRPGQPPRLLIYKISNRFSGVPDRFSGSGAGTDFTLKISRVEAEDVGVYYCTQATQFPYTFGQGTKVDIK
# notes: also called IgG 4A8
# B2: mAb 120 (antibody, V domains shown)
# VH: QVQLVQSGAEVKKPGASVKVSCKASGYTFTSYDINWVRQAPGQGLEWMGMIDPSGGSTSYAQKFQGRVTMTRDTSTSTVYMELSSLRSEDTAVYYCAKDFGGGTRYDYWYFDLWGRGTLVTVSS
# VL: EIVMTQSPATLSVSPGERATLSCRASQSVSSRYLAWYQQKPGQAPRLLIYGASTRATGIPARFSGSGSGTEFTLTISSLQSEDFAVYYCQQYYTTPRTFGQGTRLEIKR
# notes: also called IgG 120; Antibody 120
# B3: mAb 192 (antibody, V domains shown)
# VH: QVQLVQSGAEVKKPGSSVKVSCKASGGTFSSYAISWVRQAPGQGLEWMGWINPNSGGANYAQKFQGRVTITADESTSTAYMELSSLRSEDTAVYYCSTYYYDSSGYSTDYWGQGTLVTVSS
# VL: DIVMTQSPLSLPVTPGEPASISCRSSQSLLHSNGYNYLDWYLQKPGQSPQLLIYAASSLQSGVPDRFSGSGSGTDFTLKISRVEAEDVGVYYCMQALQTPYTFGQGTKLEIKR
# B4: mAb 180 (antibody, V domains shown)
# VH: QVQLVQSGAEVKKPGSSVKVSCKASGYTFTSYAMHWVRQAPGQGLEWMGRISPRSGGTKYAQRFQGRVTITADESTSTAYMELSSLRSEDTAVYYCAREAVAGTHPQAGDFDLWGRGTLVTVSS
# VL: B3 VL with M94Q, A96Y, L97Y, Q98S, T99S
# B5: mAb 128 (antibody, V domains shown)
# VH: QVQLVQSGAEVKKPGASVKVSCKASGYTFTHYYMHWVRQAPGQGLEWMGIINPSSSSASYSQKFQGRVTMTRDTSTSTVYMELSSLRSEDTAVYYCARDGRYGSGSYPFDYWGQGTLVTVSS
# VL: DIQMTQSPSSLSASVGDRVTITCRASQNISRYLNWYQQKPGKAPKLLIYDASNLETGVPSRFSGSGSGTDFTLTISSLQPEDFATYYCQQANGFPPTFGQGTKLEIKR
# B6: mAb 64 (antibody, V domains shown)
# VH: EVQLLESGGGLVQPGGSLRLSCAASGFPFSQHGMHWVRQAPGKGLEWVSAIDRSGSYIYYADSVKGRFTISRDNSKNTLYLQMNSLRAEDTAVYYCARDTYGGKVTYFDYWGQGTLVTVSS
# VL: B5 VL with N28G, R31S, Y32H, N34A, A91T, N92Y, G93S, F94T, P96W, L104V
# notes: also called IgG 64; Antibody 64
# B7: mAb 56 (antibody, V domains shown)
# VH: QVQLVQSGAEVKKPGASVKVSCKASGYTFTSYGISWVRQAPGQGLEWMGWISAYNGNTNYAQKLQGRVTMTRDTSTSTVYMELSSLRSEDTAVYYCARDIGPIDYWGQGTLVTVSS
# VL: B5 VL with N28G, R31S, N34A, E55Q, T56S, G93S, P96S, L104V
# notes: also called IgG 56; Antibody 56
# B8: mAb 324 (antibody, V domains shown)
# VH: QVQLVQSGAEVKKPGASVKVSCKASGGTFNNYGISWVRQAPGQGLEWMGWMNPNSGNTGYAQKFQGRVTMTRDTSTSTVYMELSSLRSEDTAVYYCARVGDYGDYIVSPFDLWGRGTLVTVSS
# VL: B5 VL with N28S, S30T, R31T, A91S, N92Y, G93S, F94T, L104V
# notes: also called IgG 324; Antibody 324
# B9: mAb 82 (antibody, V domains shown)
# VH: QVQLVQSGAEVKKPGASVKVSCKASGGSFSTSAFYWVRQAPGQGLEWMGWINPYTGGTNYAQKFQGRVTMTRDTSTSTVYMELSSLRSEDTAVYYCARSRALYGSGSYFDYWGQGTLVTVSS
# VL: B5 VL with N28V, R31N, N34A, A91S, N92F, G93S, F94P, K103R
# notes: also called IgG 82; Antibody 82
# B10: mAb 158 (antibody, V domains shown)
# VH: QVQLVQSGAEVKKPGASVKVSCKASGYTFTGYYMHWVRQAPGQGLEWMGWINPLNGGTNFAPKFQGRVTMTRDTSTSTVYMELSSLRSEDTAVYYCARDPGGSYSNDAFDIWGQGTLVTVSS
# VL: B5 VL with N28S, T56S, G93S, P96L, Q100G, L104V, E105D
# notes: also called IgG 158; Antibody 158
# B11: mAb 349 (antibody, V domains shown)
# VH: EVQLLESGGGLVQPGGSLRLSCAASGFTFSNYGMHWVRQAPGKGLEWVSGISSAGSITNYADSVKGRFTISRDNSKNTLYLQMNSLRAEDTAVYYCAGNHAGTTVTSEYFQHWGQGTLVTVSS
# VL: DIQMTQSPSSLSASVGDRVTITCRASQSISSWLAWYQQKPGKAPKLLIYDTSNLETGVPSRFSGSGSGTDFTLTISSLQPEDFATYYCQQSYTTPWTFGQGTRLEIKR
# notes: also called IgG 349; Antibody 349
# B12: mAb 108 (antibody, V domains shown)
# VH: QVQLVQSGAEVKKPGASVKVSCKASGYIFSRYAIHWVRQAPGQGLEWMGWMNPISGNTDYAPNFQGRVTMTRDTSTSTVYMELSSLRSEDTAVYYCAKDGSQLAYLVEYFQHWGQGTLVTVSS
# VL: B11 VL with S28V, S30T, S31N, W32N, T51A, N53T, T94F, W96Y, R103K, L104V
# B13: mAb 160 (antibody, V domains shown)
# VH: QVQLVQSGAEVKKPGASVKVSCKASGYTFTGHDMHWVRQAPGQGLEWMGIINPSGGSTSYAQKFQGRVTMTRDTSTSTVYMELSSLRSEDTAVYYCARANSLRYYYGMDVWGQGTMVTVSS
# VL: B11 VL with I29V, D50A, T51A, N53S, E55Q, T56S, S91G, W96Y, R103K
# notes: also called IgG 160; Antibody 160
# B14: mAb 46 (antibody, V domains shown)
# VH: EVQLLESGGGLVQPGRSLRLSCAASGFTFSSYAMSWVRQAPGKGLEWVSTIYSGGSTYYADSVKGRFTISRDNSKNTLYLQMNSLRAEDTAVYYCARGDSRDAFDIWGQGTMVTVSS
# VL: B11 VL with T51A, T93S, W96F, Q100P, R103K, L104V, E105D
# notes: also called IgG 46; Antibody 46
# B15: mAb 178 (antibody, V domains shown)
# VH: QVQLVQSGAEVKKPGASVKVSCKASGYTFTDYHMHWVRQAPGQGLEWMGWINPNSGGTNYAQKFQGRVTMTRDTSTSTVYMELSSLRSEDTAVYYCARDISSWYEITKFDPWGQGTLVTVSS
# VL: EIVMTQSPATLSVSPGERATLSCKASQSVSGTYLAWYQQKPGQAPRLLIYGASTRATGIPARFSGSGSGTEFTLTISSLQSEDFAVYYCLQTHSYPPTFGQGTKVEIKR
# notes: also called IgG 178; Antibody 178
# B16: mAb 52 (antibody, V domains shown)
# VH: QVQLVQSGAEVKKPGSSVKVSCKASGYTFTSYGISWVRQAPGQGLEWMGGIIPMFGTTNYAQKFQGRVTITADKSTSTAYMELSSLRSEDTAVYYCARDRGDTIDYWGQGTLVTVSS
# VL: DIQMTQSPSSLSASVGDRVTITCRASQGISNNLNWYQQKPGKAPKLLIYAASSLESGVPSRFSGSGSGTDFTLTISSLQPEDFATYYCQQGNGFPLTFGPGTKVDIKR
# notes: also called IgG 52; Antibody 52
# B17: mAb 236 (antibody, V domains shown)
# VH: QVQLVQSGAEVKKPGASVKVSCKASGGTFTSYGINWVRQAPGQGLEWMGWMNPNSGNTGYAQKFQGRVTMTRDTSTSTVYMELSSLRSEDTAVYYCASRGIQLLPRGMDVWGQGTTVTVSS
# VL: not shown
# notes: also called IgG 236; Antibody 236
# B18: mAb 254 (antibody, V domains shown)
# VH: EVQLLESGGGLVQPGGSLRLSCAASGFTFSSSAMHWVRQAPGKGLEWVSAIGTGGDTYYADSVKGRFTISRDNSKNTLYLQMNSLRAEDTAVYYCAREGDGYNFYFDYWGQGTLVTVSS
# VL: DIQMTQSPSSLSASVGDRVTITCRASQGISSYLAWYQQKPGKAPKLLIYDASSLQIGVPSRFSGSGSGTDFTLTISSLQPEDFATYYCLQSYSTPPWTFGQGTKVEIKR
# notes: also called IgG 254; Antibody 254
# B19: mAb 368 (antibody, V domains shown)
# VH: QVQLVQSGAEVKKPGSSVKVSCKASGYTFTSYDINWVRQAPGQGLEWMGAIMPMFGTANYAQKFQGRVTITADESTSTAYMELSSLRSEDTAVYYCARGSSGYYYGWGQGTLVTVSS
# VL: not shown
# Target: T1, SARS-CoV-2 Spike on wild-type pseudotyped virus (PsV) (SARS-CoV-2, UniProt P0DTC2 14-1273)
# Test: cell-based or functional assay
row,Binder,Median IC50
1,B1,> 100 µg/mL and > 0.66 µM

# Target: T1, SARS-CoV-2 Spike on wild-type …
# Test: cell-based or functional assay
# Remark: another data set of the same source
row,Binder,IC50 SARS-CoV2 PsV (IgG)
1,B2,> 50 µg/mL
2,B3,> 50 µg/mL
3,B4,> 50 µg/mL
4,B5,> 50 µg/mL
5,B6,> 50 µg/mL
6,B7,> 50 µg/mL
7,B8,0.78 µg/mL
8,B9,1.6 µg/mL
9,B10,> 50 µg/mL
10,B11,> 50 µg/mL
11,B12,> 50 µg/mL
12,B13,> 50 µg/mL
13,B14,2.1 µg/mL
14,B15,> 50 µg/mL
15,B16,0.55 µg/mL
16,B17,0.057 µg/mL
17,B18,> 50 µg/mL
18,B19,> 50 µg/mL

# Target: Spike of authentic SARS-CoV-2/SB2-P4-PB virus (SARS-CoV-2, UniProt P0DTC2 14-1273)
# Test: cell-based or functional assay
row,Binder,IC50 SARS-CoV2/SB2-P4-PB (IgG)
1,B8,21 µg/mL
2,B14,19 µg/mL
3,B16,6.2 µg/mL
4,B17,5.5 µg/mL

# Target: T1, SARS-CoV-2 Spike on wild-type …
# Test: cell-based or functional assay
# Remark: another data set of the same source
row,Binder,Median IC50
1,B2,> 50 µg/mL and > 333 nM
2,B3,> 50 µg/mL and > 333 nM
3,B4,> 50 µg/mL and > 333 nM
4,B5,> 50 µg/mL and > 333 nM
5,B6,> 50 µg/mL and > 333 nM
6,B7,> 50 µg/mL and > 333 nM
7,B8,0.78 µg/mL and 5.2 nM
8,B9,1.6 µg/mL and 11 nM
9,B10,> 50 µg/mL and > 333 nM
10,B11,> 50 µg/mL and > 333 nM
11,B12,> 50 µg/mL and > 333 nM
12,B13,> 50 µg/mL and > 333 nM
13,B14,2.1 µg/mL and 14 nM
14,B15,> 50 µg/mL and > 333 nM
15,B16,0.61 µg/mL and 4.1 nM
16,B17,0.057 µg/mL and 0.38 nM
17,B18,> 50 µg/mL and > 333 nM
18,B19,> 50 µg/mL and > 333 nM

# Source: patent US20250002564A1 (HOSPITAL FOR SICK CHILDREN, published 2025)
